Data on seven variants can be found in IntAct's records for PubMed 25910212.

B1: Keratin, type II cytoskeletal 6A (Homo sapiens), P02538 (parent)
chain: MASTSTTIRSHSSSRRGFSANSARLPGVSRSGFSSVSVSRSRGSGGLGGACGGAGFGSRSLYGLGGSKRISIGGGSCAISGGYGSRAGGSYGFGGAGSGFGFGGGAGIGFGLGGGAGLAGGFGGPGFPVCPPGGIQEVTVNQSLLTPLNLQIDPTIQRVRAEEREQIKTLNNKFASFIDKVRFLEQQNKVLETKWTLLQEQGTKTVRQNLEPLFEQYINNLRRQLDSIVGERGRLDSELRGMQDLVEDFKNKYEDEINKRTAAENEFVTLKKDVDAAYMNKVELQAKADTLTDEINFLRALYDAELSQMQTHISDTSVVLSMDNNRNLDLDSIIAEVKAQYEEIAQRSRAEAESWYQTKYEELQVTAGRHGDDLRNTKQEIAEINRMIQRLRSEIDHVKKQCANLQAAIADAEQRGEMALKDAKNKLEGLEDALQKAKQDLARLLKEYQELMNVKLALDVEIATYRKLLEGEECRLNGEGVGQVNISVVQSTVSSGYGGASGVGSGLGLGGGSSYSYGSGLGVGGGFSSSSGRAIGGGLSSVGGGSSTIKYTTTSSSSRKSYKH
partner: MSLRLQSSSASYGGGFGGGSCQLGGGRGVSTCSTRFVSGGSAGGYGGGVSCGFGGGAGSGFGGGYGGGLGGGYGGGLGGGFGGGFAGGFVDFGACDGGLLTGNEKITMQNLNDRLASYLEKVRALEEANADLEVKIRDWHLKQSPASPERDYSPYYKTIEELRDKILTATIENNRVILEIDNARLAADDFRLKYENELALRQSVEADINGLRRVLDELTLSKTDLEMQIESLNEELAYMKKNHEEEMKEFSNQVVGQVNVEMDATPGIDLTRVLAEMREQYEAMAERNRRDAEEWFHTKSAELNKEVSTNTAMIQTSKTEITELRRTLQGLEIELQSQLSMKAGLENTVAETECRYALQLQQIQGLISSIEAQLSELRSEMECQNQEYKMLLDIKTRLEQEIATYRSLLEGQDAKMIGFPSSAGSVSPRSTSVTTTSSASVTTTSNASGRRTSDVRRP
B2: F-box only protein 7 (Homo sapiens), Q9Y3I1 (parent)
chain: MRLRVRLLKRTWPLEVPETEPTLGHLRSHLRQSLLCTWGYSSNTRFTITLNYKDPLTGDEETLASYGIVSGDLICLILQDDIPAPNIPSSTDSEHSSLQNNEQPSLATSSNQTSMQDEQPSDSFQGQAAQSGVWNDDSMLGPSQNFEAESIQDNAHMAEGTGFYPSEPMLCSESVEGQVPHSLETLYQSADCSDANDALIVLIHLLMLESGYIPQGTEAKALSMPEKWKLSGVYKLQYMHPLCEGSSATLTCVPLGNLIVVNATLKINNEIRSVKRLQLLPESFICKEKLGENVANIYKDLQKLSRLFKDQLVYPLLAFTRQALNLPDVFGLVVLPLELKLRIFRLLDVRSVLSLSAVCRDLFTASNDPLLWRFLYLRDFRDNTVRVQDTDWKELYRKRHIQRKESPKGRFVMLLPSSTHTIPFYPNPLHPRPFPSSRLPPGIIGGEYDQRPTLPYVGDPISSLIPGPGETPSQFPPLRPRFDPVGPLPGPNPILPGRGGPNDRFPFRPSRGRPTDGRLSFM
partner: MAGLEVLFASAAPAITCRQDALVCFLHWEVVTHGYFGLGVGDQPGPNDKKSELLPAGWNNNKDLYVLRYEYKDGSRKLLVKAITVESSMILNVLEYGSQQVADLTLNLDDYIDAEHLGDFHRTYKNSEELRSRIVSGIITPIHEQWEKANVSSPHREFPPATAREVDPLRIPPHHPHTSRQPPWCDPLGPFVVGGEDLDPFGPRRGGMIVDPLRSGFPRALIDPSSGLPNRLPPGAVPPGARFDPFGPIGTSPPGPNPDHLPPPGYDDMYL
B3: Progranulin (Homo sapiens), P28799 (parent)
chain: MWTLVSWVALTAGLVAGTRCPDGQFCPVACCLDPGGASYSCCRPLLDKWPTTLSRHLGGPCQVDAHCSAGHSCIFTVSGTSSCCPFPEAVACGDGHHCCPRGFHCSADGRSCFQRSGNNSVGAIQCPDSQFECPDFSTCCVMVDGSWGCCPMPQASCCEDRVHCCPHGAFCDLVHTRCITPTGTHPLAKKLPAQRTNRAVALSSSVMCPDARSRCPDGSTCCELPSGKYGCCPMPNATCCSDHLHCCPQDTVCDLIQSKCLSKENATTDLLTKLPAHTVGDVKCDMEVSCPDGYTCCRLQSGAWGCCPFTQAVCCEDHIHCCPAGFTCDTQKGTCEQGPHQVPWMEKAPAHLSLPDPQALKRDVPCDNVSSCPSSDTCCQLTSGEWGCCPIPEAVCCSDHQHCCPQGYTCVAEGQCQRGSEIVAGLEKMPARRASLSHPRDIGCDQHTSCPVGQTCCPSLGGSWACCQLPHAVCCEDRQHCCPAGYTCNVKARSCEKEVVSAQPATFLARSPHVGVKDVECGEGHFCHDNQTCCRDNRQGWACCPYRQGVCCADRRHCCPAGFRCAARGTKCLRREAPRWDAPLRDPALRQLL
partner: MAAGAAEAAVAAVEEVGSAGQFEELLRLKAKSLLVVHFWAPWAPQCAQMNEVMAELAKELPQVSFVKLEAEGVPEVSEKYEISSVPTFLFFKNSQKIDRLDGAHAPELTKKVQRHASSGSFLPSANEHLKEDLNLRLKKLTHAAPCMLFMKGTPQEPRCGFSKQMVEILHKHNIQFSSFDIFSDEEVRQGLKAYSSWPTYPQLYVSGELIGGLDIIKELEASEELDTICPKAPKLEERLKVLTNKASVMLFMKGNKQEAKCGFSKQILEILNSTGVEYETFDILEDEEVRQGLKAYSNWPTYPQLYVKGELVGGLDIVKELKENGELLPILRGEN

The first assay covers variants of B1. To be noted: with KRT13, P13646.
For MASTSTTIRSHSSSRRGFSANSARLPGVSRSGFSSVSVSRSRGSGGLGGACGGAGFGSRSLYGLGGSKRISIGGGSCAISGGYGSRAGGSYGFGGAGSGFGFGGGAGIGFGLGGGAGLAGGFGGPGFPVCPPGGIQEVTVNQSLLTPLNLQIDPTIQRVRAEEREQIKTLNNKFASFIDKVRFLEQQNKVLETKWTLLQEQGTKTVRQNLEPLFEQYINNLRRQLDSIVGERGRLDSELRGMQDLVEDLKNKYEDEINKRTAAENEFVTLKKDVDAAYMNKVELQAKADTLTDEINFLRALYDAELSQMQTHISDTSVVLSMDNNRNLDLDSIIAEVKAQYEEIAQRSRAEAESWYQTKYEELQVTAGRHGDDLRNTKQEIAEINRMIQRLRSEIDHVKKQCANLQAAIADAEQRGEMALKDAKNKLEGLEDALQKAKQDLARLLKEYQELMNVKLALDVEIATYRKLLEGEECRLNGEGVGQVNISVVQSTVSSGYGGASGVGSGLGLGGGSSYSYGSGLGVGGGFSSSSGRAIGGGLSSVGGGSSTIKYTTTSSSSRKSYKH [F249L], the “effect of a mutation on the interaction” value is on record as “with no effect”.

On to MASTSTTIRSHSSSRRGFSANSARLPGVSRSGFSSVSVSRSRGSGGLGGACGGAGFGSRSLYGLGGSKRISIGGGSCAISGGYGSRAGGSYGFGGAGSGFGFGGGAGIGFGLGGGAGLAGGFGGPGFPVCPPGGIQEVTVNQSLLTPLNLQIDPTIQRVRAEEREQIKTLNNKFASFIDKVRFLEQQNKVLETKWTLLQEQGTKTVRQNLEPLFEQYINNLRRQLDSIVGERGRLDSELRGMQDLVEDFKNKYEDEINKRTAAENEFVTLKKDVDAAYMNKVELQAKADTLTDEINFLRALYDAELSQMQTHISDTSVVLSMDNNRNLDLDSIIAEVKAQYEEIAQRSRAEAESWYQTKYEELQVTAGRHGDDLRNTKQEIAEINRMIQRLRSEIDHVKKQCANLQAAIADAEQRGEMALKDAKNKLEGLEDALQKAKQDLARLLKEYQELMNVKLALDVEIATYRKLLEGEECRLNGEGVGQVNISVVQSTVSSGYGGASGVGSGLGLGGGSSYSYGSGLGFGGGFSSSSGRAIGGGLSSVGGGSSTIKYTTTSSSSRKSYKH [V523F], for which the “effect of a mutation on the interaction” value is on record as “with no effect”. Same read-out and setting: the entry for MASTSTTIRSHSSSRRGFSANSARLPGVSRSGFSSVSVSRSRGSGGLGGACGGAGFGSRSLYGLGGSKRISIGGGSCAISGGYGSRAGGSYGFGGAGSGFGFGGGAGIGFGLGGGAGLAGGFGGPGFPVCPPGGIQEVTVNQSLLTPLNLQIDPTIQRVRAEEREQIKTLNNKFASFIDKVRFLEQQNKVLETKWTLLQEQGTKTVRQNLEPLFEQYINNLRRQLDSIVGERGRLDSELRGMQDLVEDFKNKYEDEINKRTAAENEFVTLKKDVDAAYMNKVELQAKADTLTDEINFLRALYDAELSQMQTHISDTSVVLSMDNNRNLDLDSIIAEVKAQYEEIAQRSRAEAESWYQTKYEELQVTAGRHGDDLRNTKQEIAEINRMIQRLRSEIDHVKKQCANLQAAIADAEQRGEMALKDAKNKLEGLEDALQKAKQDLARLLKEYQELMNVKLALDVESATYRKLLEGEECRLNGEGVGQVNISVVQSTVSSGYGGASGVGSGLGLGGGSSYSYGSGLGVGGGFSSSSGRAIGGGLSSVGGGSSTIKYTTTSSSSRKSYKH [I462S] is “with no effect”.

In the case of MASTSTTIRSHSSSRRGFSANSARLPGVSRSGFSSVSVSRSRGSGGLGGACGGAGFGSRSLYGLGGSKRISIGGGSCAISGGYGSRAGGSYGFGGAGSGFGFGGGAGIGFGLGGGAGLAGGFGGPGFPVCPPGGIQEVTVNQSLLTPLNLQIDPTIQRVRAEEREQIKTLKNKFASFIDKVRFLEQQNKVLETKWTLLQEQGTKTVRQNLEPLFEQYINNLRRQLDSIVGERGRLDSELRGMQDLVEDFKNKYEDEINKRTAAENEFVTLKKDVDAAYMNKVELQAKADTLTDEINFLRALYDAELSQMQTHISDTSVVLSMDNNRNLDLDSIIAEVKAQYEEIAQRSRAEAESWYQTKYEELQVTAGRHGDDLRNTKQEIAEINRMIQRLRSEIDHVKKQCANLQAAIADAEQRGEMALKDAKNKLEGLEDALQKAKQDLARLLKEYQELMNVKLALDVEIATYRKLLEGEECRLNGEGVGQVNISVVQSTVSSGYGGASGVGSGLGLGGGSSYSYGSGLGVGGGFSSSSGRAIGGGLSSVGGGSSTIKYTTTSSSSRKSYKH [N171K], the “effect of a mutation on the interaction” value is listed as “with no effect”.

In the next assay the parent is B2. To be noted: with psmf1_human PSMF1, Q92530.
MRLRVRLLKRTWPLEVPETEPMLGHLRSHLRQSLLCTWGYSSNTRFTITLNYKDPLTGDEETLASYGIVSGDLICLILQDDIPAPNIPSSTDSEHSSLQNNEQPSLATSSNQTSMQDEQPSDSFQGQAAQSGVWNDDSMLGPSQNFEAESIQDNAHMAEGTGFYPSEPMLCSESVEGQVPHSLETLYQSADCSDANDALIVLIHLLMLESGYIPQGTEAKALSMPEKWKLSGVYKLQYMHPLCEGSSATLTCVPLGNLIVVNATLKINNEIRSVKRLQLLPESFICKEKLGENVANIYKDLQKLSRLFKDQLVYPLLAFTRQALNLPDVFGLVVLPLELKLRIFRLLDVRSVLSLSAVCRDLFTASNDPLLWRFLYLRDFRDNTVRVQDTDWKELYRKRHIQRKESPKGRFVMLLPSSTHTIPFYPNPLHPRPFPSSRLPPGIIGGEYDQRPTLPYVGDPISSLIPGPGETPSQFPPLRPRFDPVGPLPGPNPILPGRGGPNDRFPFRPSRGRPTDGRLSFM [T22M]: the “effect of a mutation on the interaction” value is given as “disrupting interaction strength”.

Variants of B3 are the subject of another assay. As to conditions: with glrx3_human GLRX3, O76003.
Take MWTLVSWVDLTAGLVAGTRCPDGQFCPVACCLDPGGASYSCCRPLLDKWPTTLSRHLGGPCQVDAHCSAGHSCIFTVSGTSSCCPFPEAVACGDGHHCCPRGFHCSADGRSCFQRSGNNSVGAIQCPDSQFECPDFSTCCVMVDGSWGCCPMPQASCCEDRVHCCPHGAFCDLVHTRCITPTGTHPLAKKLPAQRTNRAVALSSSVMCPDARSRCPDGSTCCELPSGKYGCCPMPNATCCSDHLHCCPQDTVCDLIQSKCLSKENATTDLLTKLPAHTVGDVKCDMEVSCPDGYTCCRLQSGAWGCCPFTQAVCCEDHIHCCPAGFTCDTQKGTCEQGPHQVPWMEKAPAHLSLPDPQALKRDVPCDNVSSCPSSDTCCQLTSGEWGCCPIPEAVCCSDHQHCCPQGYTCVAEGQCQRGSEIVAGLEKMPARRASLSHPRDIGCDQHTSCPVGQTCCPSLGGSWACCQLPHAVCCEDRQHCCPAGYTCNVKARSCEKEVVSAQPATFLARSPHVGVKDVECGEGHFCHDNQTCCRDNRQGWACCPYRQGVCCADRRHCCPAGFRCAARGTKCLRREAPRWDAPLRDPALRQLL [A9D]: the “effect of a mutation on the interaction” value is “disrupting interaction strength”.

Take MWTLVSWVALTAGLVAGTRCPDGQFCPVACCLDPGGASYSCCRPLLDKWPTTLSRHLGGPCQVDAHCSAGHSCIFTVSGTSSCCPFPEAVACGDGHHCCPRGFHCSADGRSCFQRSGNNSVGAIQCPDSQFECPDFSTCCVMVDGSWGCCPMPQASCCEDRVHCCPHGAFCDLVHTRCITPTGTHPLAKKLPAQRTNRAVALSSSVMCPDARSRCPDGSTCCELPSGKYGCCPMPNATCCSDHLHCCLQDTVCDLIQSKCLSKENATTDLLTKLPAHTVGDVKCDMEVSCPDGYTCCRLQSGAWGCCPFTQAVCCEDHIHCCPAGFTCDTQKGTCEQGPHQVPWMEKAPAHLSLPDPQALKRDVPCDNVSSCPSSDTCCQLTSGEWGCCPIPEAVCCSDHQHCCPQGYTCVAEGQCQRGSEIVAGLEKMPARRASLSHPRDIGCDQHTSCPVGQTCCPSLGGSWACCQLPHAVCCEDRQHCCPAGYTCNVKARSCEKEVVSAQPATFLARSPHVGVKDVECGEGHFCHDNQTCCRDNRQGWACCPYRQGVCCADRRHCCPAGFRCAARGTKCLRREAPRWDAPLRDPALRQLL [P248L]: the “effect of a mutation on the interaction” value is reported as “with no effect”.
